According to patent US20100041612A1 (published 2010):
Ends that are not written are not given here.

What was measured:
[1] = molecular target: hyperactive human GLP-1 receptor variant (human); experiment: cell-based or functional assay
[2] = molecular target: wild-type human GLP-1 receptor (human, UniProt P43220 24-463); experiment: cell-based or functional assay

Binder | cAMP production (radioimmunoassay), EC50 [1] [µM] | cAMP production, fold higher potency against GLP-1 (7-20) amide -bpa at the hyperactive receptor [1] [fold] | cAMP production (radioimmunoassay), EC50 [2] [µM] | cAMP production, fold potency increase against GLP-1 (7-20) amide without biphenylalanine [2] [fold] | cAMP production, fold potency increase against the same peptide at the wild type receptor [1] [fold] | cAMP production (radioimmunoassay), half maximal excitatory concentration (EC50) [2] [µM]
HAEGTFTSDVSSYL-biphenylalanine (not fully specified) [GLP-1 (7-20) carboxy-terminal tethered with biphenylalanine] | 2 | 10 | 11 | 22 |  | 
HAEGTFTSDVSSYL-NH2 [GLP-1 (7-20) amide] | 24 |  |  |  | 10 | 240
